From patent US10662235B2, “Cysteine engineered fibronectin type III domain binding molecules” (Janssen Biotech, Inc., priority 2016, dated 2020)
Entries after “also recorded” stand apart in the source; their conditions may differ.

Experiments:
[1] = tested on: MDA-MB-435 cells; assay: Cytotoxicity assay of cytotoxin conjugates in EGFR-negative MDA-MB-435 cells; assay type: cell-based, human; settings: EGFR-negative cell line; CellTiter Glo or IncuCyte object count at 66, 72 or 90 hour
Protocol: Cell killing was assessed by measuring viability of the EGFR-overexpressing human tumor cell line H1573 following exposure to the cysteine variant-cytotoxin conjugates. Cells were plated in black-well, clear bottomed, tissue culture-treated plates (Falcon 353219) at 7000/well in 100 μL/well of phenol red free RPMI media (Gibco 11835-030) with 5% fetal bovine serum (Gibco). Cells were allowed to attach overnight at 37° C. in a humidified 5% CO2 atmosphere. Medium was aspirated from 96-well plate and cells were treated with 50 uL of fresh media and 50 uL of 2× inhibitor made up in fresh media. Cell viability was determined by an endpoint assay with Cell TiterGlo (Promega) at 70 hours. IC50 values were determined by fitting data to the equation for a sigmoidal dose response with variable slope using GraphPad Prism 5 (GraphPad Software). Table 11 reports IC50 values obtained from analysis of the CellTiter Glo data.
Conjugates consisting of ECB147 cysteine variants, 83v2-cys, or Tencon-cys linked to a cytotoxic tubulin inhibitor from the auristatin family (FIG. 2) were tested for target-dependent cytotoxicity in cancer cells. […] Cell killing was assessed by measuring viability of the EGFR-overexpressing human tumor cell lines H1573 and A431 as well as the EGFR-negative tumor cell line MDA-MB-435 following exposure to the protein-cytotoxin conjugates using the procedure described in Example 4.

[2] = target: T1, EGFR on A431 cells (Homo sapiens, UniProt P00533); assay: A431 cell binding assay; settings: purified FN3 domains
T1 construct: A431 cells (American Type Culture Collection, cat. # CRL-1555) over-express EGFR; host or cells: A431
Protocol: To assess the ability of different FN3 domains to bind EGFR in a more physiological context, their ability to bind A431 cells was measured. A431 cells (American Type Culture Collection, cat. # CRL-1555) over-express EGFR with ˜2×10^6 receptors per cell. Cells were plated at 5,000/well in opaque black 96-well plates and allowed to attach overnight at 37° C., in a humidified 5% CO2 atmosphere. FN3 domain-expressing bacterial lysates were diluted 1,000-fold into FACS stain buffer (Becton Dickinson) and incubated for 1 hour at room temperature in triplicate plates. Lysates were removed and cells were washed 3 times with 150 μL/well of FACS stain buffer. Cells were incubated with 50 μL/well of anti-penta His-Alexa488 antibody conjugate (Qiagen) diluted 1:100 in FACS stain buffer for 20 minutes at room temperature. Cells were washed 3 times with 150 μL/well of FACS stain buffer, after which wells were filled with 100 μL of FACS stain buffer and read for fluorescence at 488 nm using an Acumen eX3 reader. […]
A431 cells were plated at 5,000/well in opaque black 96-well plates and allowed to attach overnight at 37° C., in a humidified 5% CO2 atmosphere. […] Cells were washed 3 times with 150 μL/well of FACS stain buffer, after which wells were filled with 100 μL of FACS stain buffer and read for fluorescence at 488 nm using an Acumen eX3 reader. […]

[3] = target: T2, EGFR in NCI-H292 cells (Homo sapiens, UniProt P00533); assay: Inhibition of EGFR phosphorylation in NCI-H292 cells; assay type: cell-based; settings: H292 cells (FIG. 7A)
T2 construct: EGF-stimulated phosphorylation of EGFR in the human tumor cell line NCI-H292; host or cells: NCI-H292
Protocol: Purified EGFR-binding FN3 domains were tested for their ability to inhibit EGF-stimulated phosphorylation of EGFR in A431 cells at a single concentration. EGFR phosphorylation was monitored using the EGFR phospho(Tyr1173) kit (Meso Scale Discovery). Cells were plated at 20,000/well in clear 96-well tissue culture-treated plates (Nunc) in 100 μL/well of RPMI medium (Gibco) containing GlutaMAX™ with 10% fetal bovine serum (FBS) (Gibco) and allowed to attach overnight at 37° C. in a humidified 5% CO2 atmosphere. Culture medium was removed completely and cells were starved overnight in 100 μL/well of medium containing no FBS at 37° C. in a humidified 5% CO2 atmosphere. […] Signals were detected by addition of 150 μL/well of Read Buffer (Meso Scale Discovery) and reading on a SECTOR® Imager 6000 instrument (Meso Scale Discovery) using manufacturer-installed assay-specific default settings. Percent inhibition of the EGF-stimulated positive control signal was calculated for each EGFR-binding FN3 domain.
NCI-H292, NCI-H441, or NCI-H596 cells were plated in 96 well plates in RPMI medium containing 10% FBS. […] Cells were lysed with MSD Lysis Buffer and cell signaling was assessed using appropriate MSD Assay plates, according to manufacturer's instructions, as described above. […]

[4] = target: T3, EGFR in NCI-H596 cells (Homo sapiens, UniProt P00533); assay: Inhibition of EGFR phosphorylation in NCI-H596 cells; assay type: cell-based; settings: H596 cells (FIG. 7B)
T3 construct: endogenous in cells; host or cells: NCI-H596
Protocol: NCI-H292, NCI-H441, or NCI-H596 cells were plated in 96 well plates in RPMI medium containing 10% FBS. 24 hours later, medium was replaced with serum free RPMI. […] Cells were treated for 1 h with the monospecific or bispecific molecules and then stimulated with EGF, HGF, or a combination of EGF and HGF for 15 minutes at 37° C., 5% CO2. Cells were lysed with MSD Lysis Buffer and cell signaling was assessed using appropriate MSD Assay plates, according to manufacturer's instructions, as described above.

[5] = Body weight loss / tolerability in H292-HGF xenograft study; settings: treatment and 2 weeks observation
Protocol: At the time of routine monitoring, the animals were checked for any effects of tumor growth and treatments on normal behavior, such as mobility, visual estimation of food and water consumption, body weight gain/loss (body weights were measured twice weekly), eye/hair matting and any other abnormal effect.
Animals for which the body weight loss exceeded 20%, or for which the mean tumor size of the group exceeds 2000 mm^3 were euthanized. The study was terminated after two weeks of observation after the final dose.

[6] = tested on: H292-HGF tumor xenografts; assay: Tumor efficacy study with bispecific EGFR/c-Met molecules (tumor growth inhibition); assay type: in vivo, SCID Beige mice; settings: 25 mg/kg three times per week (FIG. 10)
Protocol: One week after implantation, mice were stratified into groups with equivalent tumor volumes (mean tumor volume=77.9+/−1.7 mm^3). Mice were dosed three times per week with the bispecific molecules and tumor volumes were recorded twice weekly.

[7] = tested on: H292-HGF human lung cancer xenograft; assay: Efficacy of bispecific molecule and other inhibitors in H292-HGF xenograft model (tumor volume, T/C, T-C); assay type: in vivo, SCID/Beige mice; settings: H292-HGF xenograft
Protocol: The H292-HGF cells were maintained in vitro in RPMI1640 medium supplemented with fetal bovine serum (10% v/v), and L-glutamine (2 mM) at 37° C. in an atmosphere of 5% CO2 in air. The cells were routinely subcultured twice weekly by trypsin-EDTA treatment. The cells growing in an exponential growth phase were harvested and counted for tumor inoculation.
Each mouse was inoculated subcutaneously at the right flank region with H292-HGF tumor cells (2×10^6) in 0.1 ml of PBS with cultrex (1:1) for tumor development. The treatments were started when the mean tumor size reached 139 mm^3. […] The date of tumor cell inoculation was denoted as day 0.
Before commencement of treatment, all animals were weighed and the tumor volumes were measured. Since the tumor volume can affect the effectiveness of any given treatment, mice were assigned into groups using randomized block design based upon their tumor volumes. […] The randomized block design was used to assign experimental animals to groups. First, the experimental animals were divided into homogeneous blocks according to their initial tumor volume. Secondly, within each block, randomization of experimental animals to treatments was conducted.
The major endpoint was whether tumor growth can be delayed or tumor bearing mice can be cured. Tumor size was measured twice weekly in two dimensions using a caliper, and the volume was expressed in mm^3 using the formula: V=0.5a×b^2 where a and b are the long and short diameters of the tumor, respectively. The tumor size was then used for calculations of both T-C and T/C values. T-C was calculated with T as the time (in days) required for the mean tumor size of the treatment group to reach 1000 mm^3, and C was the time (in days) for the mean tumor size of the control group to reach the same size. The T/C value (in percent) was an indication of antitumor efficacy; T and C were the mean volume of the treated and control groups, respectively, on a given day. Complete tumor regression (CR) is defined as tumors that are reduced to below the limit of palpation (62.5 mm^3). Partial tumor regression (PR) is defined as tumors that are reduced from initial tumor volume. A minimum duration of CR or PR in 3 or more successive tumor measurements is required for a CP or PR to be considered durable.
Statistical analyses of difference in tumor volume among the groups were evaluated using a one-way ANOVA followed by individual comparisons using Games-Howell (equal variance not assumed). All data were analyzed using SPSS 18.0. p<0.05 was considered to be statistically significant.

[8] = Analytical size exclusion chromatography (aggregation state, percent monomer); assay type: physicochemical; settings: NEM-conjugated cysteine variants; SEC, Abs280
Protocol: Size exclusion chromatography was used to determine the aggregation state of the FN3 domains binding EGFR. Aliquots (10 μL) of each purified FN3 domain were injected onto a Superdex 75 5/150 column (GE Healthcare) at a flow rate of 0.3 mL/min in a mobile phase of PBS pH 7.4. Elution from the column was monitored by absorbance at 280 nm.
The percent monomer for each protein was determined by integrating the Abs280 signal and comparing the peak in the monomer region (5.5-6 minutes) to the peaks in the oligomer region (4-5.3 minutes).

[9] = Thermal stability by differential scanning calorimetry; assay type: physicochemical; settings: cysteine-NEM conjugates
Protocol: The thermal stability of cysteine-NEM conjugates was assessed by differential scanning calorimetry (DSC). The only the conjugates tested were those determined to express at high levels, conjugate efficiently, and retain EGFR binding. Additionally, cysteine variants within the BC and FG loops were excluded. Stability data was generated by heating a 400 μL aliquot of the variant from 25° C. to 100° C. at a scan rate of 1° C. per minute in a VP-DSC instrument (MicroCal). A second identical scan was completed on the sample in order to assess the reversibility of thermal folding/unfolding. Data was fitted to a 2-state unfolding model in order to calculate the melting temperature (Table 10).
Thermal Stability of c-Met-Binding FN3 Domains Differential scanning calorimetry in PBS was used to assess the stability of each FN3 domain.

[10] = target: EGFR (Homo sapiens, UniProt P00533); assay: EGFR binding assay (ELISA) of NEM-conjugated cysteine variants relative to parent

B1: 83v2cy5-mal-PEG4-VC-MMAE (conjugate)
chain: MLPAPKNLVVSEVTEDSARLSWDDPWAFYESFLIQYQESEKVGEAIVLTVPGSERSYDLTGLKPGTEYTVSIYGVHNVYKDTNMRGLPLSAIFTTGGHHHHHHC
IC50 [1]: 512 nM

B2: 83v2cy5-mal-PEG4-VK-MMAE (conjugate)
chain: MLPAPKNLVVSEVTEDSARLSWDDPWAFYESFLIQYQESEKVGEAIVLTVPGSERSYDLTGLKPGTEYTVSIYGVHNVYKDTNMRGLPLSAIFTTGGHHHHHHC
IC50 [1]: 62 nM

B3: P54CR4-31: EGFR-binding FN3 domain, SEQ ID NO: 26 (protein)
chain: LPAPKNLVVSEVTEDSLRLSWTAPDAAFDSFLIQYQESEKVGEAINLTVPGSERSYDLTGLKPGTEYTVSIYGVLGSYVFEHDVMLPLSAEFTT
modifications: EGFR binding FN3 domain
EC50 [2]: > 20 µM

B4: ECB5: bispecific P53A1R5-17v2 / P114AR7P94-A3, (GGGGS)4, SEQ ID 54 (protein)
chain: MLPAPKNLVVSEVTEDSARLSWADPHGFYDSFLIQYQESEKVGEAIVLTVPGSERSYDLTGLKPGTEYTVSIYGVHNVYKDTNMRGLPLSAIFTTGGGGSGGGGSGGGGSGGGGSMLPAPKNLVVSRVTEDSARLSWTAPDAAFDSFWIRYFEFLGSGEAIVLTVPGSERSYDLTGLKPGTEYVVNIMGVKGGKISPPLSAIFTT
modifications: bispecific EGFR/cMet binding molecule
inhibition of phosphorylation of EGFR, bispecific vs monospecific [3]: comparable | inhibition of phosphorylation of EGFR, bispecific vs monospecific [4]: comparable

B5: ECB38: bispecific P54AR4-83v2 / P114AR7P94-A3 linked to albumin binding domain, SEQ ID 120 (protein)
chain: MLPAPKNLVVSEVTEDSARLSWDDPWAFYESFLIQYQESEKVGEAIVLTVPGSERSYDLTGLKPGTEYTVSIYGVHNVYKDTNMRGLPLSAIFTTAPAPAPAPAPLPAPKNLVVSRVTEDSARLSWTAPDAAFDSFWIRYFEFLGSGEAIVLTVPGSERSYDLTGLKPGTEYVVNIMGVKGGKISPPLSAIFTTAPAPAPAPAPLAEAKVLANRELDKYGVSDYYKNLINNAKTVEGVKALLDEILAALP
modifications: Bispecific EGFR/c-Met binding molecule
toxicity / body weight loss / tolerability [5]: Slight toxicity; also recorded: tolerated in 7 out of 10 mice | tumor growth inhibition (TGI) [6]: showed the most efficacy | antitumor activity [7]: complete tumor regression (CR) in all mice; also recorded: complete response

B6: T68C (protein)
chain 1: MLPAPKCLVVSEVTEDSARLSWDDPWAFYESFLIQYQESEKVGEAIVLTVPGSERSYDLTGLKPGTEYTVSIYGVHNVYKDTNMRGLPLSAIFTT
chain 2: LPAPKCLVVSEVTEDSARLSWDDPWAFYESFLIQYQESEKVGEAIVLTVPGSERSYDLTGLKPGTEYTVSIYGVHNVYKDTNMRGLPLSAIFTT
modifications: EGFR binding FN3 domain; EGFR-binding FN3 domain
Percent monomer [8]: 100% | First Scan Tm ([9]; DSC 25-100° C., 1° C. per minute): 72 °C | Second Scan Tm ([9]; second identical scan): 72 °C | EGFR binding relative to P54AR4-83v2 parent, 10 nM variant in assay ([10]; 10 nM): 0.83 | EGFR binding relative to P54AR4-83v2 parent, 100 nM variant in assay ([10]; 100 nM): 1.04 | EGFR binding relative to P54AR4-83v2 parent, 500 nM variant in assay ([10]; 500 nM): 0.95
